Reference: PMC6749071, “Identification of Lysine Histidine Transporter 2 as an 1-Aminocyclopropane Carboxylic Acid Transporter in Arabidopsis thaliana by Transgenic Complementation Approach” (Frontiers in Plant Science, 2019)

Substrate: NC1(C(=O)O)CC1
Assay: two-electrode voltage clamp, inward current in Xenopus oocytes
Type: cell-based, Arabidopsis thaliana
Details: pH 5.6, -80 mV, room temperature, Michaelis-Menten fit

Protein | K0.5 [mM]
LHT1 (Arabidopsis thaliana) (protein, cDNA in pGEM-HE, cRNA injected into Xenopus laevis oocytes) MVAQAPHDDHQDDEKLAAARQKEIEDWLPITSSRNAKWWYSAFHNVTAMVGAGVLGLPYAMSQLGWGPGIAVLVLSWVITLYTLWQMVEMHEMVPGKRFDRYHELGQHAFGEKLGLYIVVPQQLIVEIGVCIVYMVTGGKSLKKFHELVCDDCKPIKLTYFIMIFASVHFVLSHLPNFNSISGVSLAAAVMSLSYSTIAWASSASKGVQEDVQYGYKAKTTAGTVFNFFSGLGDVAFAYAGHNVVLEIQATIPSTPEKPSKGPMWRGVIVAYIVVALCYFPVALVGYYIFGNGVEDNILMSLKKPAWLIATANIFVVIHVIGSYQIYAMPVFDMMETLLVKKLNFRPTTTLRFFVRNFYVAATMFVGMTFPFFGGLLAFFGGFAFAPTTYFLPCVIWLAIYKPKKYSLSWWANWVCIVFGLFLMVLSPIGGLRTIVIQAKGYKFYS | 60.9 ± 8.2
LHT2 (Arabidopsis thaliana) (protein, cDNA in pGEM-HE, cRNA injected into Xenopus laevis oocytes) MGNSEMSASEVAAAKQKNVDDWLPITSSRNAKWWYSAFHNVTAMVGAGVLSLPYAMSNLGWGPGVTIMVMSWIITLYTLWQMVEMHEIVPGKRLDRYHELGQHAFGEKLGLWIVVPQQLIVEVGVDIVYMVTGGASLKKVHQLVCPDCKEIRTTFWIMIFASVHFVISHLPNFNSISIISLAAAVMSLTYSTIAWAASVHKGVHPDVDYSPRASTDVGKVFNFLNALGDVAFAYAGHNVVLEIQATIPSTPEMPSKVPMWRGVIVAYIVVAICYFPVAFLGYYIFGNSVDDNILITLEKPIWLIAMANMFVVIHVIGSYQIFAMPVFDMLETVLVKKMNFNPSFKLRFITRSLYVAFTMIVAICVPFFGGLLGFFGGFAFAPTTYYLPCIMWLVLKKPKRFGLSWTANWFCIIVGVLLTILAPIGGLRTIIINAKTYKFFS | 59.1 ± 6.6
